Reference: the Immune Epitope Database (IEDB)
Blank lines part the entries; values can stand above or below the sequence they belong to.

What was measured:
HLA-C*12:03 = assay: IEDB peptide-MHC binding, purified MHC/direct/fluorescence; filed as Kd, often an IC50 or EC50 that approximates it; ≥ and ≤ were set here for values at or beyond the usual limits of such assays
HLA-A*26:01 = assay: IEDB peptide-MHC binding, purified MHC/competitive/fluorescence; filed as Kd, often an IC50 or EC50 that approximates it; ≥ and ≤ were set here for values at or beyond the usual limits of such assays; details: source organism: Yersinia pestis Antiqua
HLA-A*01:01 [1] = assay: as above; details: source organism: Yersinia pestis Antiqua
HLA-B*35:01 [2] = assay: as above; details: source organism: Yersinia pestis Antiqua
HLA-A*03:01 [3] = assay: IEDB peptide-MHC binding, purified MHC/direct/fluorescence; filed as Kd, often an IC50 or EC50 that approximates it; ≥ and ≤ were set here for values at or beyond the usual limits of such assays
HLA-A*11:01 [4] = assay: as above
HLA-A*31:01 [5] = assay: IEDB peptide-MHC binding, purified MHC/competitive/fluorescence; filed as Kd, often an IC50 or EC50 that approximates it; ≥ and ≤ were set here for values at or beyond the usual limits of such assays
HLA-A*33:01 = assay: IEDB peptide-MHC binding, purified MHC/competitive/radioactivity; filed as Kd, often an IC50 or EC50 that approximates it; ≥ and ≤ were set here for values at or beyond the usual limits of such assays
HLA-A*02:03 = assay: as above
HLA-B*54:01 = assay: as above
HLA-A*02:01 = assay: as above
HLA-A*03:01 [6] = assay: as above
HLA-B*40:02 = assay: as above; details: source organism: Hepatitis C virus (isolate H)
HLA-A*31:01 [7] = assay: as above
HLA-A*02:02 = assay: as above
HLA-B*07:02 = assay: as above
HLA-B*51:01 [8] = assay: as above
HLA-B*44:02 = assay: as above; details: source organism: Hepatitis C virus (isolate H)
HLA-A*01:01 [9] = assay: as above; details: source organism: Hepatitis C virus (isolate H)
HLA-B*35:01 [10] = assay: as above
HLA-B*08:01 = assay: as above; details: source organism: Hepatitis C virus (isolate H)
HLA-A*68:02 = assay: as above
HLA-B*40:01 = assay: as above; details: source organism: Hepatitis C virus (isolate H)
HLA-A*68:01 = assay: as above
HLA-A*02:06 = assay: as above
HLA-A*11:01 [11] = assay: as above
HLA-B*18:01 = assay: as above; details: source organism: Hepatitis C virus (isolate H)
HLA-B*53:01 = assay: as above
HLA-B*44:03 = assay: as above; details: source organism: Hepatitis C virus (isolate H)
HLA-B*51:01 [12] = assay: IEDB peptide-MHC binding, purified MHC/competitive/fluorescence; filed as Kd, often an IC50 or EC50 that approximates it; ≥ and ≤ were set here for values at or beyond the usual limits of such assays; details: source organism: Rickettsia felis URRWXCal2
HLA-A*03:01 [13] = assay: as above; details: source organism: Bacillus cereus G9241
HLA-A*24:03 = assay: as above; details: source organism: Bacillus anthracis str. A0488
[14] = source organism: Yersinia pestis Antiqua
[15] = source organism: Escherichia coli O157:H7
[16] = source organism: Hepatitis C virus (isolate H)
[17] = source organism: Vaccinia virus WR
[18] = source organism: Yersinia enterocolitica

Sequence: FASSRMSTY
Kd (HLA-C*12:03; [14]): ≤ 1 nM
Kd (HLA-A*26:01): 223 nM
Kd (HLA-A*01:01 [1]): 979 nM
Kd (HLA-B*35:01 [2]): 0.2 nM

Kd (HLA-A*03:01 [3]; [15]): 29.3 nM
Kd (HLA-A*11:01 [4]; [15]): 191 nM
Kd (HLA-A*31:01 [5]; source organism: Escherichia coli O157:H7 str. Sakai): 13.7 nM
Sequence: GMLVGRLGK

Sequence: HPALVFDITK
Kd (HLA-A*33:01; [16]): ≥ 38400 nM
Kd (HLA-A*02:03; [16]): 7410 nM
Kd (HLA-B*54:01; [16]): 130 nM
Kd (HLA-A*02:01; [16]): ≥ 69400 nM
Kd (HLA-A*03:01 [6]; [16]): 4200 nM
Kd (HLA-B*40:02): ≥ 70800 nM
Kd (HLA-A*31:01 [7]; [16]): ≥ 70000 nM
Kd (HLA-A*02:02; [16]): ≥ 47200 nM
Kd (HLA-B*07:02; [16]): 3040 nM
Kd (HLA-B*51:01 [8]; [16]): ≥ 69600 nM
Kd (HLA-B*44:02): ≥ 70200 nM
Kd (HLA-A*01:01 [9]): 6400 nM
Kd (HLA-B*35:01 [10]; [16]): 433 nM
Kd (HLA-B*08:01): ≥ 52100 nM
Kd (HLA-A*68:02; [16]): ≥ 69800 nM
Kd (HLA-B*40:01): ≥ 69600 nM
Kd (HLA-A*68:01; [16]): 2.32 nM
Kd (HLA-A*02:06; [16]): ≥ 69800 nM
Kd (HLA-A*11:01 [11]; [16]): 862 nM
Kd (HLA-B*18:01): ≥ 28200 nM
Kd (HLA-B*53:01; [16]): 478 nM
Kd (HLA-B*44:03): ≥ 63300 nM

Sequence: IAMESIVIW
Kd (HLA-C*12:03; source organism: Human immunodeficiency virus 1): ≤ 1 nM

Sequence: IAYESSNKI
Kd (HLA-C*12:03; source organism: Rickettsia felis URRWXCal2): 7 nM
Kd (HLA-B*51:01 [12]): 196 nM

Sequence: ILIFLRNFR
Kd (HLA-A*03:01 [13]): ≥ 20000 nM
Kd (HLA-A*31:01 [5]; source organism: Bacillus cereus G9241): 5.1 nM

Kd (HLA-A*03:01 [3]; [15]): 71.1 nM
Kd (HLA-A*11:01 [4]; [15]): 932 nM
Kd (HLA-A*31:01 [5]; source organism: Escherichia coli): 153 nM
Sequence: KLAETRMGY

Sequence: KVFSFWLLCK
Kd (HLA-A*33:01; [17]): 863 nM
Kd (HLA-A*02:03; [17]): 3360 nM
Kd (HLA-B*54:01; [17]): 2550 nM
Kd (HLA-A*02:01; [17]): 1190 nM
Kd (HLA-A*03:01 [6]; [17]): 6.3 nM
Kd (HLA-A*31:01 [7]; [17]): 9.25 nM
Kd (HLA-A*02:02; [17]): 4250 nM
Kd (HLA-B*07:02; [17]): ≥ 44900 nM
Kd (HLA-B*51:01 [8]; [17]): 17000 nM
Kd (HLA-B*35:01 [10]; [17]): ≥ 47400 nM
Kd (HLA-A*68:02; [17]): ≥ 49400 nM
Kd (HLA-A*68:01; [17]): 42.8 nM
Kd (HLA-A*02:06; [17]): 8660 nM
Kd (HLA-A*11:01 [11]; [17]): 3.27 nM
Kd (HLA-B*53:01; [17]): 2340 nM

Sequence: QFMEGIYKL
Kd (HLA-A*24:03): 4.1 nM

Sequence: RAFKYPFIK
Kd (HLA-A*03:01 [3]; source organism: Fowlpox virus): 6.8 nM
Kd (HLA-A*11:01 [4]; source organism: Fowlpox virus): 1.7 nM
Kd (HLA-A*31:01 [5]; source organism: Fowlpox virus): 60 nM

Sequence: TFMIITSTK
Kd (HLA-A*33:01; [17]): 619 nM
Kd (HLA-A*02:03; [17]): ≥ 30800 nM
Kd (HLA-B*54:01; [17]): ≥ 42600 nM
Kd (HLA-A*02:01; [17]): ≥ 78100 nM
Kd (HLA-A*03:01 [6]; [17]): 404 nM
Kd (HLA-A*31:01 [7]; [17]): 367 nM
Kd (HLA-A*02:02; [17]): ≥ 63700 nM
Kd (HLA-B*07:02; [17]): ≥ 77500 nM
Kd (HLA-B*51:01 [8]; [17]): ≥ 77500 nM
Kd (HLA-B*35:01 [10]; [17]): 19700 nM
Kd (HLA-A*68:02; [17]): ≥ 76900 nM
Kd (HLA-A*68:01; [17]): 104 nM
Kd (HLA-A*02:06; [17]): ≥ 77100 nM
Kd (HLA-A*11:01 [11]; [17]): 189 nM
Kd (HLA-B*53:01; [17]): ≥ 78200 nM

Sequence: TVWNRLIAR
Kd (HLA-A*03:01 [3]; [18]): 39.3 nM
Kd (HLA-A*11:01 [4]; [18]): 32.6 nM
Kd (HLA-A*31:01 [5]; [14]): ≤ 1 nM
